Measured values reported in article PMC10312502.

Molecular target: human 40S ribosomal subunit labelled with Cy3 on the N-terminus of uS19 (human) (UniProt P62841)
Assay: FRET or BRET

## Bat-Hp-CoV Nsp1, fluorescently labelled (wild type) (natural protein)
  fold inhibition of eIF1A association with the 40S subunit: > 2 fold
  koff: < 0.01 s⁻¹
  persistence of the FRET signal: > 100 s
